First the molecules themselves.
B1: SC03-040 (scFv)
scFv: AMAQVQLVQSGGGLVQPGGSLRLSCAASGFTFSSYAMHWVRQAPGKGLEYVSGISSNGGSTYYANSVKGRFTISRDNSKNTLYLQMGSLRAEDMAVYYCARTTNRAFDIWGQGTMVTVSSGTGGSGGTGSGTGGSTDIQMTQSPDSLAVSLGERATINCRSSQSVLYSSNNKNYLAWYQQKPGQPPKLLIYWASTRESGVPDRFSGSGSGTDFTLTISSLQAEDVAVYYCQQYYSSPYSFGQGTKLEIKRAA
B2: SC03-054 (scFv)
scFv: AMAEVQLVQSGGGVVQPGRSLRLSCAASGFTFSSYAMHWVRQAPGKGLEYVSGISSNGGSTYYANSVKGRFTISRDNSKNTLYLQMGSLRAEDMAVYYCARTTNRAFDIWGQGTMVTVSSGTGGSGGTGSGTGGSTDIQLTQSPDSLAVSLGERATINCKSSQSVLYSSNNKNYLAWYQQKPGQPPKLLIYWASTRESGVPDRFSGGGSGTDFTLTISSLQAEDVAVYYCQQYYSTPYSFGQGTKVEIKRAA
B3: SC03-033 (scFv)
scFv: AMAQVQLVQSGTEVKKPGESLKISCKGSGYGFITYWIGWVRQMPGKGLEWMGIIYPGDSETRYSPSFQGQVTISADKSINTAYLQWSSLKASDTAIYYCAGGSGISTPMDVWGQGTTVTVSSGTGGSGGTGSGTGGSTDVVMTQSPDSLAVSLGERATINCKTSHNIFSRSNNKDYLAWYQQKPGQPPRLLIYWASTRASGVPERFSGSGSGTDFSLTISSLQAEDVAVYYCQQYYSSPMYSFGQGTKVEIKRAA
B4: SC03-037 (scFv)
scFv: AMAKVQLVQSGGGLIQPGGSLRLSCAASGFTVSSNYMSWVRQAPGKGLEWVSIVFSGGSTYYADSVKGRFTISRDNSKNTLYLQMNSLRAEDTAVYYCARDAHRGFGMDVWGQGTTVTVSSGTGGSGGTGSGTGGSTSSELTQDPAVSVALGQTVRITCQGDSLRSYYASWYQQKPGQAPVLVIYGKNNRPSGIPDRFSGSSSGNTASLTITGAQAEDEADYYCNGRDSSGNHWVFGGGTKLTVLGAA
B5: SC03-038 (scFv)
scFv: AMAEVQLVQSGGGLIQPGGSLRLSCAASGFTVSSNYMSWVRQAPGKGLEWVSIVFSGGSTYYADSVKGRFTISRDNSKNTLYLQMNSLRAEDTAVYYCARDAHRGFGMDVWGQGTTVTVSSGTGGSGGTGSGTGGSTSSELTQDPAVSVALGQTVRITCQGDSLRSYYASWYQQKPGQAPVLVIYGKNNRPSGIPDRFSGSSSGDTASLTITGAQAEDEADYYCNSRDSSGNHWVFGGGTKLTVLGAA
B6: SC03-044 (scFv)
scFv: AMAEVQLVETGGGLVQPGGSLRLSCAASGFTFSSYAMHWVRQAPGKGLEYVSGISSNGGSTYYANSVKGRFTISRDNSKNTLYLQMGSLRAEDMAVYYCARTTNRAFDIWGQGTMVTVSSGTGGSGGTGSGTGGSTDIQMTQSPDSLAVSLGERATINCKSSQSVLYSSNNKNYLAWYQQKPGQPPKLLIYWASTRESGVPDRFRGSGSGTDFTLTISSLQAEDLAVYYCQQYYSTPYSFGQGTKLEIKRAA
B7: SC03-031 (scFv)
scFv: AMAQVQLVQSGADVKKPGSSVKVSCEASGGTFSSYAISWVRQAPGQGLEWMGRIIPILGITNYAQKFQGRVTITADKSTGTGNMELSSLRSEDTAVYYCARESGGGYDNHFDYWGQGTLVTVSSGTGGSGGTGSGTGGSTQSVLTQPPSASGTPGQRVTISCSGGSSNIGSNTVNWYQQLPGTAPKLVIYANNQRPSGVPDRFSASKSGTSASLAISGLQSEDEADYYCAAWDDSLTGGVFGGGTQLTVLSAA
B8: SC03-046 (scFv)
scFv: AMAEVQLVQSGGGLVQPGGSLRLSCAASGFTFSSYAMHWVRQAPGKGLEYVSGISSNGGSTYYANSVKGRFTISRDNSKNTLYLQMGSLRAEDMAVYYCARTTNRAFDIWGQGTMVTVSSGTGGSGGTGSGTGGSTDVVMTQSPDSLAVSLGERATINCKSSQSVLYSSNNKNYLAWYQQKPGQPPKLLIYWASTRESGVPDRFSGSGSGTDFSLTISSLQAEDVAVYYCQQYYSPPYTFGPGTKVEIKRAA
B9: SC03-036 (scFv)
scFv: AMAEVQLVQSGTEVKKPGESLKISCKGSGYGFITYWIGWVRQMPGKGLEWMGIIYPGDSETRYSPSFQGQVTISADKSINTAYLQWSSLKASDTAIYYCAGGSGISTPMDVWGQGTTVTVSSGTGGSGGTGSGTGGSTDIQMTQSPDSLAVSLGERATINCKSSQSVLHSPNNKNYLAWYQQKPGQPPKLLIYWASTRESGVPDRFSGSGSGTDFTLTISSLQAEDVAVYYCQQYYSTNSFGQGTKLEIKRAA
B10: SC03-043 (scFv)
scFv: AMAQVQLVQSGGGLVQPGGSLRLSCAASGFTFSSYAMHWVRQAPGKGLEYVSGISSNGGSTYYANSVKGRFTISRDNSKNTLYLQMGSLRAEDMAVYYCARTTNRAFDIWGQGTMVTVSSGTGGSGGTGSGTGGSTDIQLTQSPDSLAVSLGERATINCKSSQSVLYRSNNKNYLAWYQQKPGQPPKLLIYWASTRESGVSERFSGSGSGTDFTLTISSLQAEDVAVYYCQQYYSTPYSFGQGTKLEIKRAA
B11: SC03-034 (scFv)
scFv: AMAEVQLVQSGAEVKKPGESLKISCKGSGYGFITYWIGWVRQMPGKGLEWMGIIYPGDSETRYSPSFQGQVTISADKSINTAYLQWSSLKASDTAIYYCAGGSGISTPMDVWGQGTTVTVSSGTGGSGGTGSGTGGSTDVVMTQSPDSLAVSLGERATINCKSSQSILNRSNNKNYLAWYQQKPGQPPKLLIYWASTRESGVPDRFSGSGSGTDFNLTISSLQAEDVAVYYCQQYNNWPLTFGGGTKVDIKRAA
B12: SC03-055 (scFv)
scFv: AMAQVQLQQWGAGLLKPSETLSLTCAVYGGSFSGFYWSWIRQPPGKGLEWIGEINHSGSTNYNPSLKSRVTISADTSKNQFSLKLSSVTAADTAVYYCARRVEVVEYQLLRPRYKSWFDPWGQGTLVTVSSGTGGSGGTGSGTGGSTQSVLTQPPSVSGAPGQRVSISCSGSGANGGTDPVSWYQKFPGTAPHLLIYDNNKRPSGIPDRFSGSKSGASATLDITGLQTGDEADYYCGAWDPSLSGYVFGTGTQLTVLSAA
B13: SC03-051 (scFv)
scFv: AMAQVQLVQSGTEVKKPGESLKISCKGSGYGFITYWIGWVRQMPGKGLEWMGIIYPGDSETRYSPSFQGQVTISADKSINTAYLQWSSLKASDTAIYYCAGGSGISTPMDVWGQGTTVTVSSGTGGSGGTGSGTGGSTDIQMTQSPDSLAVSLGERATINCKSGQSILYSSNDKNYLAWYQQKPGQPPKLLIYWASTRESGVPDRFSGSGSGTDFTLTISSLQAEDVAVYYCQQYYSTPYTFGQGTKVEIKRAA
B14: SC03-039 (scFv)
scFv: AMAEVQLVESGGGLVQPGGSLRLSCAASGFTFSSYAMSWVRQAPGKGLEWVSVIYSGGTSTYYADSVKGRFTISRDNSKNTLYLQMNSLRAEDTAVYFCAKGSKWNDVGGGDYWGQGTLVTVSSGTGGSGGTGSGTGGSTNFMLTQPHSVSESPGKTVTISCAGSSGSIASNYVQWYQQRPGSAPTTVIYEDNQRPSGVPDRFSGSIDSSSNSASLTISGLKTEDEADYYCQSYDGYLWIFGGGTKLTVLGAA
B15: SC03-057 (scFv)
scFv: AMAQVQLVQSGAEVKKPGSSVKVSCKASGGTFSRYAISWVRQAPGQGLEWMGRINPILNLTNYAQKFQGRVTITADKSTSTAYMEMSSLRSEDTAIYYCASPDIVVAGHASPPHYTMDVWGQGTTVTVSSGTGGSGGTGSGTGGSTDIQMTQSPSSLSASVGDRVTITCRASQGIRNDLGWYQQKPGKAPNLLIYQASALQSGVPSRFSGSESGAEFTLTISSLHPDDFATYYCQQYHDFPITFGQGTRLEIKRAA
B16: SC03-024 (scFv)
scFv: AMAQVQLVESGSELKIPGASVKVSCKATGYTFTRYSLNWVRQAPGQGLEWVGWINTQTGNSNYGQAFSGRFVFSLDTSVSTAYLQISSLQAEDTATYYCARKSAGSNAFDIWGQGTMVTVSSGTGGSGGTGSGTGGSTQSVVTQPPSVSAAPGQKATISCSGSSSNIGNNYVSWYQQLPGTAPKLLIYDNNKRPSGIPNRFSGSKSGTSATLGITGLQTGDEADYYCGTWDSSLSAYVFGTGTKVTVLGAA
B17: SC03-023 (scFv)
scFv: AMAQVQLQQWGAGLLKPSETLSLTCAVYGGSFSGFYWSWIRQPPGKGLEWIGEINHSGSTNYNPSLKSRVTISVDTSKNQFSLKLSSVTAADTAVYYCARRVEVVEYQLLRPRYKSWFDPWGQGTLVTVSSGTGGSGGTGSGTGGSTQSALTQPRSVSGSPGQSVTISCTGSSSTVGGYNYVSWYQQHPGKAPKLMIYDVSKRPSGVSNRFSGSKSGNTASLTISGLQAEDEADYYCSSYTSSSTYVFGTGTKVTVLGAA
B18: SC03-020 (scFv)
scFv: AMAEVQLVQSGSEVKKPGESLKISCKGSGYGFITYWIGWVRQMPGKGLEWMGIIYPGDSETRYSPSFQGQVTISADKSINTAYLQWSSLKASDTAIYYCAGGSGISTPMDVWGQGTTVTVSSGTGGSGGTGSGTGGSTDIQMTQSPDSLAVSLGERATINCKSSQKILHSSNNKNYLAWYQQKPGQPPKLLIYWASTRESGVPDRFSGSGSGTDFTLTISSLQAEDVAVYYCQQYYSTPPVFGGGTKVEIKRAA
B19: SC03-021 (scFv)
scFv: AMAQVQLVQSGTEVKKPGESLKISCKGSGYGFITYWIGWVRQMPGKGLEWMGIIYPGDSETRYSPSFQGQVTISADKSINTAYLQWSSLKASDTAIYYCAGGSGISTPMDVWGQGTTVTVSSGTGGSGGTGSGTGGSTDVVMTQSPDSLAVSLGERATINCKSSQSVLHSSNNKNYLAWYQQKPGQPPKLLIYWASTRQSGVPDRFSGSGSGTDFTLTISSLQAEDVAVYYCQQYYSTPPTFGQGTKVEIKRAA

One experiment concerns the target SARS-CoV preparation (Frankfurt 1 strain). Put plainly: phage ELISA on coated SARS-CoV preparation, plate 4 (no phage antibody 0.051).
For B1, the OD492 nm was 0.616 OD492 nm. Take B2: the OD492 nm was 0.428 OD492 nm.

With B3, the OD492 nm turned out to be 0.288 OD492 nm. Regarding B4, the OD492 nm was 0.287 OD492 nm. B5 registered an OD492 nm of 0.314 OD492 nm. B6 yielded an OD492 nm of 0.518 OD492 nm.

For the molecule B7, the OD492 nm came out at 0.635 OD492 nm.

For a further experiment the target is unchanged. Put plainly: phage ELISA on coated SARS-CoV preparation, plate 3 (no phage antibody 0.054). On the technique in general: ELISA stands for enzyme-linked immunosorbent assay.
Consider B8, for which the OD492 nm was determined as 1.9 OD492 nm. Same read-out and setting: the figure for B9 is 0.24 OD492 nm; for B10 it is 1.27 OD492 nm. B11 had an OD492 nm of 0.802 OD492 nm. Regarding B12, the OD492 nm stood at 0.608 OD492 nm. Regarding B13, the OD492 nm was 0.602 OD492 nm.

Consider B14, for which the OD492 nm worked out at 0.851 OD492 nm. The molecule B15 displayed an OD492 nm of 1.19 OD492 nm.

A further experiment shares this target. Description: phage ELISA on coated SARS-CoV preparation, plate 2 (no phage antibody 0.211).
B16: the OD492 nm was determined as 0.235 OD492 nm. The molecule B17 returned an OD492 nm of 1.31 OD492 nm.

As to B18, the OD492 nm came to 0.671 OD492 nm. B19 registered an OD492 nm of 0.215 OD492 nm.

These data come from patent US20060121580A1.
